Experimental data reported in US20250043302A1, “MUTATED HYDROXYPHENYLPYRUVATE DIOXYGENASE POLYPEPTIDE, AND CODING GENE AND USE THEREOF” (BEIJING DABEINONG BIOTECHNOLOGY CO., LTD., priority 2021, published 2025).

System: Arabidopsis thaliana T1 plants
Test: Mesotrione tolerance of transgenic Arabidopsis thaliana T1 plants (spray, bleached leaf area grade, damage score)
Type: in vivo
Set-up: Scores: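 damage score 0-100 computed as Σ(N×S)/(T×M)×100 over grades 0-3 with higher meaning more damage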
Conditions: Arabidopsis thaliana T1 plants; for Grade 0 (classification and statistics of the grade of pesticide damage; number of plants) / Grade 1 (classification and statistics of the grade of pesticide damage; number of plants) / Grade 2 (classification and statistics of the grade of pesticide damage; number of plants) / Grade 3 (classification and statistics of the grade of pesticide damage; number of plants): 16 plants
Excerpt: T1 transformants were initially selected from the untransformed seeds using a glufosinate selection scheme. The Arabidopsis thaliana T1 plants (AsHPPD-02) into which the AsHPPD-02 nucleotide sequence was introduced, the Arabidopsis thaliana T1 plants (AsHPPDm-F372A-02) into which the AsHPPDm-F372A-02 nucleotide sequence was introduced, the Arabidopsis thaliana T1 plants (AsHPPDm-F383W-02) into which the AsHPPDm-F383W-02 nucleotide sequence was introduced, the Arabidopsis thaliana T1 plants (AsHPPDm-F372A-F383W-02) into which the AsHPPDm-F372A-F383W-02 nucleotide sequence was introduced, the Arabidopsis thaliana T1 plants (DBN11726N) into which the control recombinant expression vector DBN11726N was introduced, and the wild-type Arabidopsis thaliana plants (CK) (18 days after sowing) were sprayed respectively with topramezone at three concentrations (100 g ai/ha (four-fold field concentration, 4×), 200 g ai/ha (eight-fold field concentration, 8×), and 0 g ai/ha (water, 0×)), isoxaflutole at three concentrations (140 g ai/ha (two-fold field concentration, 2×), 280 g ai/ha (four-fold field concentration, 4×), and 0 g ai/ha (water, 0×)), and mesotrione at three concentrations (210 g ai/ha (two-fold field concentration, […]), 420 g ai/ha (four-fold field concentration, 4×), and 0 g ai/ha (water, 0×)), to determine the tolerance of Arabidopsis thaliana to the herbicides. The degree of damage caused by the herbicide was measured for each plant according to the proportion of bleached leaf area (the proportion of bleached leaf area=bleached leaf area/total leaf area×100%) 7 days after spraying (7 DAT): the case where there is basically no bleached phenotype is defined as grade 0, the case where the proportion of bleached leaf area is less than 50% is defined as grade 1, the case where the proportion of bleached leaf area is more than 50% is defined as grade 2, and the case where the proportion of bleached leaf area is 100% grade is defined as grade 3.
According to the method as described above in point 6 of Example 1, the aforementioned Arabidopsis thaliana T1 plants and wild-type Arabidopsis thaliana plants (CK) (18 days after sowing) were sprayed respectively with topramezone at three concentrations (25 g ai/ha (one-fold field concentration, 1×). 100 g ai/ha (four-fold field concentration, 4×), and 0 g ai/ha (water, 0×)), isoxaflutole at three concentrations (35 g ai/ha (half-fold field concentration, 0.5×). 70 g ai/ha (one-fold field concentration, 1×), and 0 g ai/ha (water, 0×)), and mesotrione at three concentrations (52.5 g ai/ha (half-fold field concentration, 0.5×), 105 g ai/ha (one-fold field concentration, 1×), and 0 g ai/ha (water, 0×)) to detect the tolerance of Arabidopsis thaliana to the herbicides.
According to the method as described above in point 6 of Example 1, the aforementioned Arabidopsis thaliana T1 plants and wild-type Arabidopsis thaliana plants (CK) (18 days after sowing) were sprayed with topramezone at three different concentrations (i.e., 100 g ai/ha (four-fold field concentration, 4×), 200 g ai/ha (eight-fold field concentration, 8×) and 0 g ai/ha (water, 0×)), isoxaflutole at three different concentrations (i.e., 140 g ai/ha (two-fold field concentration, 2×), 280 g ai/ha (four-fold field concentration, 4×) and 0 g ai/ha (water, 0×)), and mesotrione at three different concentrations (i.e., 210 g ai/ha (two-fold field concentration, 2×), 420 g ai/ha (four-fold field concentration, 4×) and 0 g ai/ha (water, 0×)) respectively to detect the herbicide tolerance of Arabidopsis thaliana. […]

B1: PfHPPDm-F372A-02: nucleotide sequence encoding Pseudomonas fluorescens HPPD with F372A; vector DBN11771 (nucleic acid)
DNA: ATGGCCGATTTGTACGAGAACCCAATGGGACTCATGGGTTTCGAGTTCATTGAGTTCGCTTCCCCCACCCCAGGTACTTTGGAGCCTATTTTCGAGATCATGGGCTTCACTAAGGTTGCCACACACAGGTCTAAGAATGTGCATCTCTACCGCCAAGGAGAGATTAACCTGATCCTTAACAATGAGCCTAATAGCATCGCCTCATACTTCGCTGCTGAGCATGGTCCATCTGTTTGCGGCATGGCTTTCAGAGTGAAGGATTCACAAAAGGCCTACAACAGGGCTTTGGAGCTCGGCGCCCAGCCCATTCATATCGACACCGGACCTATGGAGCTGAATCTTCCTGCCATTAAGGGCATCGGCGGAGCTCCATTGTACCTCATTGATCGCTTCGGCGAGGGCTCCTCTATCTACGATATCGACTTCGTGTACCTGGAGGGCGTTGAGAGAAACCCTGTGGGAGCTGGTCTGAAGGTTATCGACCACCTTACTCATAATGTTTACAGAGGAAGGATGGTGTACTGGGCCAACTTCTACGAGAAGCTGTTCAATTTCCGCGAGGCTAGATACTTCGATATTAAGGGCGAGTACACAGGACTTACCTCCAAGGCCATGTCTGCTCCCGACGGTATGATTAGGATCCCATTGAACGAGGAGAGCTCAAAGGGCGCCGGACAGATTGAGGAGTTCCTCATGCAATTCAATGGTGAAGGCATCCAGCACGTTGCTTTCCTGACAGATGACCTTGTGAAGACCTGGGATGCCCTCAAGAAGATTGGCATGAGGTTCATGACCGCTCCACCTGACACTTACTACGAGATGTTGGAGGGACGCCTCCCTGATCATGGCGAGCCCGTTGACCAGCTGCAAGCTAGAGGAATCCTCCTGGATGGTTCCTCTGTGGAGGGCGACAAGAGGCTTTTGCTCCAAATTGCTAGCGAGACTCTTATGGGACCCGTGTTCTTCGAGTTCATCCAGAGGAAGGGCGATGACGGATTCGGCGAGGGCAACTTCAAGGCCCTGTTCGAGTCTATTGAGAGAGATCAGGTGAGGCGCGGCGTTCTTACAGCTGACTGA
modifications: PfHPPDm-F372A-02 Nucleotide Sequence
notes: vector DBN11771
Mesotrione 52.5 g ai/ha
  Resistance evaluation: Moderately
  Scores: 31
  Grade 0 (classification and statistics of the grade of pesticide damage; number of plants): 6
  Grade 1 (classification and statistics of the grade of pesticide damage; number of plants): 7
  Grade 2 (classification and statistics of the grade of pesticide damage; number of plants): 1
  Grade 3 (classification and statistics of the grade of pesticide damage; number of plants): 2
Mesotrione 105 g ai/ha
  Resistance evaluation: Poorly resistant
  Scores: 58
  Grade 0 (classification and statistics of the grade of pesticide damage; number of plants): 0
  Grade 1 (classification and statistics of the grade of pesticide damage; number of plants): 4
  Grade 2 (classification and statistics of the grade of pesticide damage; number of plants): 12
  Grade 3 (classification and statistics of the grade of pesticide damage; number of plants): 0

B2: PfHPPDm-F383W-02: nucleotide sequence encoding Pseudomonas fluorescens HPPD with F383W; vector DBN11772 (nucleic acid)
DNA: ATGGCCGATTTGTACGAGAACCCAATGGGACTCATGGGTTTCGAGTTCATTGAGTTCGCTTCCCCCACCCCAGGTACTTTGGAGCCTATTTTCGAGATCATGGGCTTCACTAAGGTTGCCACACACAGGTCTAAGAATGTGCATCTCTACCGCCAAGGAGAGATTAACCTGATCCTTAACAATGAGCCTAATAGCATCGCCTCATACTTCGCTGCTGAGCATGGTCCATCTGTTTGCGGCATGGCTTTCAGAGTGAAGGATTCACAAAAGGCCTACAACAGGGCTTTGGAGCTCGGCGCCCAGCCCATTCATATCGACACCGGACCTATGGAGCTGAATCTTCCTGCCATTAAGGGCATCGGCGGAGCTCCATTGTACCTCATTGATCGCTTCGGCGAGGGCTCCTCTATCTACGATATCGACTTCGTGTACCTGGAGGGCGTTGAGAGAAACCCTGTGGGAGCTGGTCTGAAGGTTATCGACCACCTTACTCATAATGTTTACAGAGGAAGGATGGTGTACTGGGCCAACTTCTACGAGAAGCTGTTCAATTTCCGCGAGGCTAGATACTTCGATATTAAGGGCGAGTACACAGGACTTACCTCCAAGGCCATGTCTGCTCCCGACGGTATGATTAGGATCCCATTGAACGAGGAGAGCTCAAAGGGCGCCGGACAGATTGAGGAGTTCCTCATGCAATTCAATGGTGAAGGCATCCAGCACGTTGCTTTCCTGACAGATGACCTTGTGAAGACCTGGGATGCCCTCAAGAAGATTGGCATGAGGTTCATGACCGCTCCACCTGACACTTACTACGAGATGTTGGAGGGACGCCTCCCTGATCATGGCGAGCCCGTTGACCAGCTGCAAGCTAGAGGAATCCTCCTGGATGGTTCCTCTGTGGAGGGCGACAAGAGGCTTTTGCTCCAAATTTTCAGCGAGACTCTTATGGGACCCGTGTGGTTCGAGTTCATCCAGAGGAAGGGCGATGACGGATTCGGCGAGGGCAACTTCAAGGCCCTGTTCGAGTCTATTGAGAGAGATCAGGTGAGGCGCGGCGTTCTTACAGCTGACTGA
modifications: PfHPPDm-F383W-02 Nucleotide Sequence
notes: vector DBN11772
Mesotrione 52.5 g ai/ha
  Resistance evaluation: Non-resistant
  Scores: 77
  Grade 0 (classification and statistics of the grade of pesticide damage; number of plants): 0
  Grade 1 (classification and statistics of the grade of pesticide damage; number of plants): 0
  Grade 2 (classification and statistics of the grade of pesticide damage; number of plants): 11
  Grade 3 (classification and statistics of the grade of pesticide damage; number of plants): 5
Mesotrione 105 g ai/ha
  Resistance evaluation: Non-resistant
  Scores: 100
  Grade 0 (classification and statistics of the grade of pesticide damage; number of plants): 0
  Grade 1 (classification and statistics of the grade of pesticide damage; number of plants): 0
  Grade 2 (classification and statistics of the grade of pesticide damage; number of plants): 0
  Grade 3 (classification and statistics of the grade of pesticide damage; number of plants): 16
